# In IntAct's records for PubMed 11980910:
# B1: Dual specificity mitogen-activated protein kinase kinase 3 (Homo sapiens), P46734 (parent)
# chain: MESPASSQPASMPQSKGKSKRKKDLRISCMSKPPAPNPTPPRNLDSRTFITIGDRNFEVEADDLVTISELGRGAYGVVEKVRHAQSGTIMAVKRIRATVNSQEQKRLLMDLDINMRTVDCFYTVTFYGALFREGDVWICMELMDTSLDKFYRKVLDKNMTIPEDILGEIAVSIVRALEHLHSKLSVIHRDVKPSNVLINKEGHVKMCDFGISGYLVDSVAKTMDAGCKPYMAPERINPELNQKGYNVKSDVWSLGITMIEMAILRFPYESWGTPFQQLKQVVEEPSPQLPADRFSPEFVDFTAQCLRKNPAERMSYLELMEHPFFTLHKTKKTDIAAFVKEILGEDS
# Variants of: B1
# Conditions: with dyr1b_human DYRK1B
row,effect of a mutation on the interaction,Variant
1,increasing interaction,MESPASSQPASMPQSKGKSKRKKDLRISCMSKPPAPNPTPPRNLDSRTFITIGDRNFEVEADDLVTISELGRGAYGVVEKVRHAQSGTIMAVKRIRATVNSQEQKRLLMDLDINMRTVDCFYTVTFYGALFREGDVWICMELMDTSLDKFYRKVLDKNMTIPEDILGEIAVSIVRALEHLHSKLSVIHRDVKPSNVLINKEGHVKMCDFGISGYLVDEVAKTMDAGCKPYMAPERINPELNQKGYNVKSDVWSLGITMIEMAILRFPYESWGTPFQQLKQVVEEPSPQLPADRFSPEFVDFTAQCLRKNPAERMSYLELMEHPFFTLHKTKKTDIAAFVKEILGEDS [S218E]
2,increasing interaction,MESPASSQPASMPQSKGKSKRKKDLRISCMSKPPAPNPTPPRNLDSRTFITIGDRNFEVEADDLVTISELGRGAYGVVEKVRHAQSGTIMAVKRIRATVNSQEQKRLLMDLDINMRTVDCFYTVTFYGALFREGDVWICMELMDTSLDKFYRKVLDKNMTIPEDILGEIAVSIVRALEHLHSKLSVIHRDVKPSNVLINKEGHVKMCDFGISGYLVDSVAKEMDAGCKPYMAPERINPELNQKGYNVKSDVWSLGITMIEMAILRFPYESWGTPFQQLKQVVEEPSPQLPADRFSPEFVDFTAQCLRKNPAERMSYLELMEHPFFTLHKTKKTDIAAFVKEILGEDS [T222E]
